From publication PMC8951703

How the values were obtained:
[1] = biological target: fibronectin (UniProt P02751); assay: SPR; plasminogen or fibronectin immobilised on CM5 chips by amine coupling (600 RU); recombinant enolase proteins 0-4000 nM injected at 30 uL/min for 180 s, 20 °C, dissociation 1000 s; 10 mM HEPES, 150 mM NaCl, 3 mM EDTA, 0.05% surfactant P20; Biacore X100
[2] = biological target: plasminogen; assay: as above
[3] = biological target: Recombinant M. hyorhinis enolase K451L (Mycoplasma hyorhinis (strain HUB-1)) (UniProt P0DXB0)
[4] = biological target: Recombinant M. hyorhinis enolase K451L-K452L (Mycoplasma hyorhinis (strain HUB-1)) (UniProt P0DXB0)
[5] = biological target: Recombinant M. hyorhinis enolase K452L (Mycoplasma hyorhinis (strain HUB-1)) (UniProt P0DXB0)

Sequence of fibronectin (P02751 32-2477): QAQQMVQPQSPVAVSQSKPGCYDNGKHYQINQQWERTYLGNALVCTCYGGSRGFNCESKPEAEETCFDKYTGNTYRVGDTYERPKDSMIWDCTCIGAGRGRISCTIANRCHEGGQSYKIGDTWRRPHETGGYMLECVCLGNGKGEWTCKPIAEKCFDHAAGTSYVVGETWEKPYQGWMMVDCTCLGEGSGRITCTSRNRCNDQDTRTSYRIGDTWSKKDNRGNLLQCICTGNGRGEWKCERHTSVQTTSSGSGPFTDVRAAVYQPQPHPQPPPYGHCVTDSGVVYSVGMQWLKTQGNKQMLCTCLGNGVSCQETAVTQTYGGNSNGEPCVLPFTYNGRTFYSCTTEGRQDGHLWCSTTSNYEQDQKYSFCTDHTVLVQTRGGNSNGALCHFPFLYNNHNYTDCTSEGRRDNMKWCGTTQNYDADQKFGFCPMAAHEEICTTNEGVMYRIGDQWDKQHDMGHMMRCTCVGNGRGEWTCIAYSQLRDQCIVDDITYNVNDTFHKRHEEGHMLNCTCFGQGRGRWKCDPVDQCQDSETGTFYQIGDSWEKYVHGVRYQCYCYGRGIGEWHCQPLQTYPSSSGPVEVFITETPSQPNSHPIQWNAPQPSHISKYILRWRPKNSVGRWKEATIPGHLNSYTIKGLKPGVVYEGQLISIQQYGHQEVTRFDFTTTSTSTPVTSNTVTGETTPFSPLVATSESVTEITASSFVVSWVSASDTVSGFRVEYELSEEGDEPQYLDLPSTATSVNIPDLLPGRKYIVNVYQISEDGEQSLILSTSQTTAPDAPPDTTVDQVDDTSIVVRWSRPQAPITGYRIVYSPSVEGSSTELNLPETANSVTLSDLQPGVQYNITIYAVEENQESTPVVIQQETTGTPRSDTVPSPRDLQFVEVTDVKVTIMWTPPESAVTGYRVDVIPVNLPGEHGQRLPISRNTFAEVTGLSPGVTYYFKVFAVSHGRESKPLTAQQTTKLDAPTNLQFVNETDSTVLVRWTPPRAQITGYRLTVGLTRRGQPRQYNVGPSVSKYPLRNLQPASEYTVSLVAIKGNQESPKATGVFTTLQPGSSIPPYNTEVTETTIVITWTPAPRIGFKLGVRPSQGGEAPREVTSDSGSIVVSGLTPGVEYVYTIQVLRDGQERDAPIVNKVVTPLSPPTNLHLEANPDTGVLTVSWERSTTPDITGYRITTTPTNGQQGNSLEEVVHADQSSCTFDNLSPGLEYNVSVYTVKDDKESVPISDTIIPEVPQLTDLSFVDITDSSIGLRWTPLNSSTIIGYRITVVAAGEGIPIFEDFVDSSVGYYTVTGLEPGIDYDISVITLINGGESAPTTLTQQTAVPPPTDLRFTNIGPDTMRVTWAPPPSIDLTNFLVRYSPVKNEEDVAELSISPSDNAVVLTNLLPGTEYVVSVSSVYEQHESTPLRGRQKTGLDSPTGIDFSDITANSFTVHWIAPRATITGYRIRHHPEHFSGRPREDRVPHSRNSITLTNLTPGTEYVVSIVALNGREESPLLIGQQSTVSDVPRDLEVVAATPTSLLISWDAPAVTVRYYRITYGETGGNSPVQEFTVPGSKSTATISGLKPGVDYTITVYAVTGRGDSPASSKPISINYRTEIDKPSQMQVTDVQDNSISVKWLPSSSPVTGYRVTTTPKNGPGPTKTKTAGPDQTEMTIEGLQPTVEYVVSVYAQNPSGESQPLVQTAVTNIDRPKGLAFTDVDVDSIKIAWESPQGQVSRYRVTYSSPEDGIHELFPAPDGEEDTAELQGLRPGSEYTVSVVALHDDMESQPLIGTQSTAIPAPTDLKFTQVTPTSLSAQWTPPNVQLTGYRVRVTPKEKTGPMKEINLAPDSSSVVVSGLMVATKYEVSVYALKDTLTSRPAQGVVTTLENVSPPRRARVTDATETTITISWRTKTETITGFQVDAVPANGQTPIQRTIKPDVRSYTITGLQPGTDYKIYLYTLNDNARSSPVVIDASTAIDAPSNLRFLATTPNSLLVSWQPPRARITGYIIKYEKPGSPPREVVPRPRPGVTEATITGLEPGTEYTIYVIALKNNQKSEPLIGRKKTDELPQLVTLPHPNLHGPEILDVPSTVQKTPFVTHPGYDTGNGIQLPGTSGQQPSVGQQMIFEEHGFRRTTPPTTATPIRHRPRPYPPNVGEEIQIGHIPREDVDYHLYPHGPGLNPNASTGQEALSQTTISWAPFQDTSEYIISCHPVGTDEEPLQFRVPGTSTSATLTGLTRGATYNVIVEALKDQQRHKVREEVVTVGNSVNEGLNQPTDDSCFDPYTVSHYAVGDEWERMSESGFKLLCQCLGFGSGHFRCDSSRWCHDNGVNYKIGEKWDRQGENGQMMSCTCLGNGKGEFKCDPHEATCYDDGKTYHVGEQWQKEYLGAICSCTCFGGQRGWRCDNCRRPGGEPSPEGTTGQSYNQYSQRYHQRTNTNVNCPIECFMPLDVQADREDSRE

Row | Substance | Kd [1] | Kd [2] | plasmin activity (OD 405 nm) of plasminogen held in wells coated with the mutant, after tPA, compared with WT rEno-bound plasminogen (printed percent, seemingly the decrease) [3] | plasmin activity (OD 405 nm) of plasminogen held in wells coated with the mutant, after tPA, compared with WT rEno-bound plasminogen (printed percent, seemingly the decrease) [4] | plasmin activity (OD 405 nm) of plasminogen held in wells coated with the mutant, after tPA, compared with WT rEno-bound plasminogen (printed percent, seemingly the decrease) [5]
1 | Recombinant M. hyorhinis enolase K451L (from UniProt P0DXB0 1-450) (enzyme) | 77.9 nM | 28 nM |  |  | 
2 | Recombinant M. hyorhinis enolase, wild-type (from UniProt P0DXB0 1-450) (enzyme; other documents disagree on this pair) | 14.3 nM |  |  |  | 
3 | plasminogen (natural protein) |  |  | 39.5% | 50.1% | 30.5%
4 | Recombinant M. hyorhinis enolase K451L-K452L (from UniProt P0DXB0 1-450) (enzyme) | 75.2 nM | 59.4 nM |  |  | 
5 | Recombinant M. hyorhinis enolase K452L (from UniProt P0DXB0 1-450) (enzyme) | 70.5 nM | 15.8 nM |  |  | 
